Substrate: Nc1ncnc2c1ncn2[C@@H]1O[C@H](COP(=O)(O)OP(=O)(O)OP(=O)(O)O)[C@@H](O)[C@H]1O
Experiment: purified protein, by the assay type

B1: ALK (V1058-P1620) G1202R (Homo sapiens; G1202R) (protein)
chain: VYRRKHQELQAMQMELQSPEYKLSKLRTSTIMTDYNPNYCFAGKTSSISDLKEVPRKNITLIRGLGHGAFGEVYEGQVSGMPNDPSPLQVAVKTLPEVCSEQDELDFLMEALIISKFNHQNIVRCIGVSLQSLPRFILLELMAGRDLKSFLRETRPRPSQPSSLAMLDLLHVARDIACGCQYLEENHFIHRDIAARNCLLTCPGPGRVAKIGDFGMARDIYRASYYRKGGCAMLPVKWMPPEAFMEGIFTSKTDTWSFGVLLWEIFSLGYMPYPSKSNQEVLEFVTSGGRMDPPKNCPGPVYRIMTQCWQHQPEDRPNFAIILERIEYCTQDPDVINTALPIEYGPLVEEEEKVPVRPKDPEGVPPLLVSQQAKREEERSPAAPPPLPTTSSGKAAKKPTAAEISVRVPRGPAVEGGHVNMAFSQSNPPSELHKVHGSRNKPTSLWNPTYGSWFTEKPTKKNNPIAKKEPHDRGNLGLEGSCTVPPNVATGRLPGASLLLEPSSLTANMKEVPLFRLRHFPCGNVNYGYQQQGLPLEAATAPGAGHYEDTILKSKNSMNQPGP
- Km (other: ALK G1202R): 23 µM

B2: ALK (V1058-P1620) S1206Y (Homo sapiens; S1206Y) (protein)
chain: VYRRKHQELQAMQMELQSPEYKLSKLRTSTIMTDYNPNYCFAGKTSSISDLKEVPRKNITLIRGLGHGAFGEVYEGQVSGMPNDPSPLQVAVKTLPEVCSEQDELDFLMEALIISKFNHQNIVRCIGVSLQSLPRFILLELMAGGDLKYFLRETRPRPSQPSSLAMLDLLHVARDIACGCQYLEENHFIHRDIAARNCLLTCPGPGRVAKIGDFGMARDIYRASYYRKGGCAMLPVKWMPPEAFMEGIFTSKTDTWSFGVLLWEIFSLGYMPYPSKSNQEVLEFVTSGGRMDPPKNCPGPVYRIMTQCWQHQPEDRPNFAIILERIEYCTQDPDVINTALPIEYGPLVEEEEKVPVRPKDPEGVPPLLVSQQAKREEERSPAAPPPLPTTSSGKAAKKPTAAEISVRVPRGPAVEGGHVNMAFSQSNPPSELHKVHGSRNKPTSLWNPTYGSWFTEKPTKKNNPIAKKEPHDRGNLGLEGSCTVPPNVATGRLPGASLLLEPSSLTANMKEVPLFRLRHFPCGNVNYGYQQQGLPLEAATAPGAGHYEDTILKSKNSMNQPGP
- Km (other: ALK S1206Y): 20 µM
